The source of these data is patent EP4740966A1.

Values joined by “and” are separate entries in the source; they are usually repeats but may differ in a detail not shown here. Equal values may be shown once. Read-outs that look alike come from different tables or passages of the source.

Holding throughout (experiment): co-expression of chains A and B 1:1 in HEK293, Protein A, non-reduced SDS-PAGE band intensity
Assay [1] concerns the target ScFv-Fc fusion protein, chain A with T366W+K409A+Y349D.
In assay [2] the target is ScFv-Fc fusion protein, chain A with Y349C+T366W+K409A+K360E+Q347E.
Assay [3] deals with VhH-Fc fusion protein (camel single domain antibody variable region-Fc), chain B with D356C+T366S+L368A+Y407V+F405K.
Assay [4] has as its target ScFv-Fc fusion protein, chain A with T366W+F405K+D399S.
Assay [5] addresses Human IgG1-Fc, chain B with D356C+T366S+L368A+Y407V+F405K+Q347R (human) [IgG part: P0DOX5].
The target of assay [6] is VhH-Fc fusion protein, chain B with T366S+L368A+Y407V+K409A+K392D.
Assay [7] deals with VhH-Fc fusion protein, chain B with T366S+L368A+Y407V+D399S+F405K.
For assay [8], the target named is VhH-Fc fusion protein, chain B with T366S+L368A+Y407V+K409A+E357A.
Assay [9] has as its target ScFv-Fc fusion protein, chain A with Y349C+T366W+K409A+Q347R.
The target in assay [10] is ScFv-Fc fusion protein, chain A with T366W+F405K+Y349D+S354D.
Assay [11] deals with Human IgG1-Fc, chain B with D356C+T366S+L368A+Y407V+Q347R (human) [IgG part: P0DOX5].
Assay [12] deals with ScFv-Fc fusion protein, chain A with Y349C+T366W+K409A.
For assay [13] the target is unchanged. This is another data set of the same source.
Assay [14] has the same target. The source holds these as a separate data set.
For assay [15], the target named is VhH-Fc fusion protein, chain B with T366S+L368G+Y407A+K409A.
The target in assay [16] is ScFv-Fc fusion protein, chain A with Y349C+T366W+K409E.
Assay [17] concerns the target ScFv-Fc fusion protein, chain A with Y349C+T366W+F405K.
Assay [18] has the same target. The source holds these as a separate data set.
For assay [19] the target is unchanged. The source holds these as a separate data set.
In assay [20] the target is Human IgG1-Fc, chain B with D356C+T366S+L368A+Y407V+K360E+Q347E (human) [IgG part: P0DOX5].
The target of assay [21] is VhH-Fc fusion protein, chain B with D356C+T366S+L368A+Y407V.
Assay [22] has as its target ScFv-Fc fusion protein, chain A with T366W+K409A+K392D.
For assay [23], the target named is Human IgG1-Fc, chain B with D356C+T366S+L368A+Y407V+F405K (human) [IgG part: P0DOX5].
Assay [24] shares this target. The source holds these as a separate data set.
In assay [25] the target is ScFv-Fc fusion protein, chain A with T366W+K409A+Y349D+S354D.
The target in assay [26] is Human IgG1-Fc, chain B with D356C+T366S+L368A+Y407V (human) [IgG part: P0DOX5].
For assay [27] the target is unchanged. This is another data set of the same source.
In assay [28] the target is ScFv-Fc fusion protein, chain A with T366W+F405K.
Assay [29] addresses ScFv-Fc fusion protein, chain A with Y349C+T366W+F405K+K360E+Q347E.
In assay [30] the target is Human IgG1-Fc, chain B with D356C+T366S+L368A+Y407V+F405K+K360E+Q347E (human) [IgG part: P0DOX5].
Assay [31] deals with ScFv-Fc fusion protein, chain A with Y349C+T366W+F405K+Q347R.
For assay [32], the target named is ScFv-Fc fusion protein, chain A with T366W+K409A.
The target in assay [33] is ScFv-Fc fusion protein (anti-Her2 single chain antibody-Fc), chain A with Y349C+T366W.

Chain of ScFv-Fc fusion protein, chain A with Y349C+T366W+F405K (chain): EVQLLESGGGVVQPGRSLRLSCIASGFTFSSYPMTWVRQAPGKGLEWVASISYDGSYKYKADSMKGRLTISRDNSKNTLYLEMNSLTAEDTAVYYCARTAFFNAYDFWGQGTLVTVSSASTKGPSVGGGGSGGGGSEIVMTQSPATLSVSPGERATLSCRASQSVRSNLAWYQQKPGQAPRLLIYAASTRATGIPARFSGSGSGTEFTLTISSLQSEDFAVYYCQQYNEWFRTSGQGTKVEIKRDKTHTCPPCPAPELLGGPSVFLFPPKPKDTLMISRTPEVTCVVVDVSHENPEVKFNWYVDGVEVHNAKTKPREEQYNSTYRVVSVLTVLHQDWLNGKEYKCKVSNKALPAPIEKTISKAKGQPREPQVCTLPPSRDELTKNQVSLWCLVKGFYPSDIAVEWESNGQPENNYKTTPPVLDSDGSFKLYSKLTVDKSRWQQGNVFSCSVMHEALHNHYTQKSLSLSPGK
Chain of ScFv-Fc fusion protein, chain A with Y349C+T366W+K409A (chain): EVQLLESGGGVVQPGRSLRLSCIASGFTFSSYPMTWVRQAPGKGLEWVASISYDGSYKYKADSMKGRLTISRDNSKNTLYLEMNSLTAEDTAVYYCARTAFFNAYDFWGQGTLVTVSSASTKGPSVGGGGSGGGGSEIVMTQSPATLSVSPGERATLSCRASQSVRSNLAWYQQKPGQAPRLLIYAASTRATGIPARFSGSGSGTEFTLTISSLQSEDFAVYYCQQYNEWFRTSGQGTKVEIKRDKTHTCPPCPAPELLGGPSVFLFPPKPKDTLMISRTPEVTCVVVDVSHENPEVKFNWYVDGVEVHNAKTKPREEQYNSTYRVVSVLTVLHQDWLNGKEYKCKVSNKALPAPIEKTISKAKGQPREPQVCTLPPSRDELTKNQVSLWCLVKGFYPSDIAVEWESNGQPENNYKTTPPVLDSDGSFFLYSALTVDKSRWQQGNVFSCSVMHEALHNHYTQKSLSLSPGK
Chain of ScFv-Fc fusion protein (anti-Her2 single chain antibody-Fc), chain A with Y349C+T366W (chain): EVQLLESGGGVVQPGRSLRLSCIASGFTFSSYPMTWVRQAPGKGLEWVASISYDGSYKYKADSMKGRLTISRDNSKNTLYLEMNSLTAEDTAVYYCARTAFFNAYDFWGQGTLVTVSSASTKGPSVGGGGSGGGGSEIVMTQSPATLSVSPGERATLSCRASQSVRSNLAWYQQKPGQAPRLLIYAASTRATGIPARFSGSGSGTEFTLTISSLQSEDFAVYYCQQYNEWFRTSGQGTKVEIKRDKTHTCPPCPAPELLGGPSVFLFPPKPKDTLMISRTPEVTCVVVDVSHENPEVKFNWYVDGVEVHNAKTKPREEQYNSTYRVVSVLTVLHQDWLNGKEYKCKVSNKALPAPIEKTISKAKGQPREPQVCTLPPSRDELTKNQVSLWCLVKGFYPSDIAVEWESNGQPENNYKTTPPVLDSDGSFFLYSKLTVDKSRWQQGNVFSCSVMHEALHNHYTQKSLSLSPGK
Chain of ScFv-Fc fusion protein, chain A with Y349C+T366W+F405K+K360E+Q347E (chain): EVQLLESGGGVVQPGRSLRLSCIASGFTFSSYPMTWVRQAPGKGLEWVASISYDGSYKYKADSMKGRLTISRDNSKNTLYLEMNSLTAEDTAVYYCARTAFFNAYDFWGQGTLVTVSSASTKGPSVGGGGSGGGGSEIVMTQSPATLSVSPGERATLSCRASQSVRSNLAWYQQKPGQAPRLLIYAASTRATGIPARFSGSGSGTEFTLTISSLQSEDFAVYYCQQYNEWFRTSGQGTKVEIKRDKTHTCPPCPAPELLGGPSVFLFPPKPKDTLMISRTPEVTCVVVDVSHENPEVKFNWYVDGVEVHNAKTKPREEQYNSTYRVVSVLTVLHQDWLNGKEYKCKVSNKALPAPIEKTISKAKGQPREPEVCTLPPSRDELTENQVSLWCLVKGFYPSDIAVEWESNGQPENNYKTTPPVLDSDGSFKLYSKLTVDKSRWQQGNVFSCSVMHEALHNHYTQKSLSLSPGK
Chain of ScFv-Fc fusion protein, chain A with Y349C+T366W+F405K+Q347R (chain): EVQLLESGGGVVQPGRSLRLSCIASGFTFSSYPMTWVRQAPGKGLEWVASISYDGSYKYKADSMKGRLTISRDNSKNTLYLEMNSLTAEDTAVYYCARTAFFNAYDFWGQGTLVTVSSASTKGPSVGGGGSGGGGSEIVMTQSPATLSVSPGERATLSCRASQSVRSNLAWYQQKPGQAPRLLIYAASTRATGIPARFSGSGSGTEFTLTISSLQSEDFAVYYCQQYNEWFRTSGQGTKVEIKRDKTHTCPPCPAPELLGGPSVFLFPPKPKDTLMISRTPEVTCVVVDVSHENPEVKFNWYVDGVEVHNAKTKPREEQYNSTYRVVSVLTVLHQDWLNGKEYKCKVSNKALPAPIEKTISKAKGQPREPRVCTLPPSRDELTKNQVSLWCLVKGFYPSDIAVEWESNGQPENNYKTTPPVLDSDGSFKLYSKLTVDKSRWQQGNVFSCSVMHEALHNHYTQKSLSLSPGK
Chain of ScFv-Fc fusion protein, chain A with Y349C+T366W+K409A+Q347R (chain): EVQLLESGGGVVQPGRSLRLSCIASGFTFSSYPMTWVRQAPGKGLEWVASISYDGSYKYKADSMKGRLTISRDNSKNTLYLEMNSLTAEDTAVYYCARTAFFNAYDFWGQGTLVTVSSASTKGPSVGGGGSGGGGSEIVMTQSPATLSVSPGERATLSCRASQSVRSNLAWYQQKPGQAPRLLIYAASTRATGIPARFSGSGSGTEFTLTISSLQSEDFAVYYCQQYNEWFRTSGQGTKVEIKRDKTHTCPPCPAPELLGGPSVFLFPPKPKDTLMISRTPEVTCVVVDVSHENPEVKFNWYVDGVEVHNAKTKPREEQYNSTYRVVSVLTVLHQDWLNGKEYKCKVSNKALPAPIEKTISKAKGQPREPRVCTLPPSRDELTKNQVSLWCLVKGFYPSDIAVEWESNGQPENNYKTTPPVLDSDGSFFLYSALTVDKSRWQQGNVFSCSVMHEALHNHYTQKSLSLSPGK
Chain of ScFv-Fc fusion protein, chain A with Y349C+T366W+K409A+K360E+Q347E (chain): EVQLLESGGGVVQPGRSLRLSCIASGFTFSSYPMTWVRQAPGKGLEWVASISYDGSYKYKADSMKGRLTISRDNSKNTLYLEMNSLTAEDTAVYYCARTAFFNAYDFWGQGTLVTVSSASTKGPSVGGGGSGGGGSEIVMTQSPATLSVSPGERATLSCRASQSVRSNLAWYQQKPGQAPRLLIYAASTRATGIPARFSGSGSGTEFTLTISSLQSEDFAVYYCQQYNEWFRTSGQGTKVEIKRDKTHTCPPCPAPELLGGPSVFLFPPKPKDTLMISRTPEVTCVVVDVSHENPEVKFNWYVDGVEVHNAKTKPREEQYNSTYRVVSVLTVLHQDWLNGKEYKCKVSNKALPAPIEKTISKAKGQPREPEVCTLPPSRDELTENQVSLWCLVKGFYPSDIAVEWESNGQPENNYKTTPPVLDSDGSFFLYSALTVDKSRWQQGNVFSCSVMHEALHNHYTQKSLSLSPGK
Chain of ScFv-Fc fusion protein, chain A with T366W+F405K+D399S (chain): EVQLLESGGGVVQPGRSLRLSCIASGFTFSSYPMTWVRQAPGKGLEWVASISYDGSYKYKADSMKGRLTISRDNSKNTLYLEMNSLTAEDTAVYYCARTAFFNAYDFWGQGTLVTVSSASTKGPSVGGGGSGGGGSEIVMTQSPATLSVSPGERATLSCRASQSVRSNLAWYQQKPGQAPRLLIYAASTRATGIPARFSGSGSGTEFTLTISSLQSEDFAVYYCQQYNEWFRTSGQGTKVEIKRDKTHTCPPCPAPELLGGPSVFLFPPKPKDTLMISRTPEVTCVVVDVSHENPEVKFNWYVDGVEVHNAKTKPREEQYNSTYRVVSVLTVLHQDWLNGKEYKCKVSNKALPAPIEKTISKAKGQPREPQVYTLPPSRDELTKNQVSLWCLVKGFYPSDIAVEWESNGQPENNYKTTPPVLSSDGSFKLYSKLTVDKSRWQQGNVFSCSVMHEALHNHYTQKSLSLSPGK
Chain of ScFv-Fc fusion protein, chain A with T366W+K409A+K392D (chain): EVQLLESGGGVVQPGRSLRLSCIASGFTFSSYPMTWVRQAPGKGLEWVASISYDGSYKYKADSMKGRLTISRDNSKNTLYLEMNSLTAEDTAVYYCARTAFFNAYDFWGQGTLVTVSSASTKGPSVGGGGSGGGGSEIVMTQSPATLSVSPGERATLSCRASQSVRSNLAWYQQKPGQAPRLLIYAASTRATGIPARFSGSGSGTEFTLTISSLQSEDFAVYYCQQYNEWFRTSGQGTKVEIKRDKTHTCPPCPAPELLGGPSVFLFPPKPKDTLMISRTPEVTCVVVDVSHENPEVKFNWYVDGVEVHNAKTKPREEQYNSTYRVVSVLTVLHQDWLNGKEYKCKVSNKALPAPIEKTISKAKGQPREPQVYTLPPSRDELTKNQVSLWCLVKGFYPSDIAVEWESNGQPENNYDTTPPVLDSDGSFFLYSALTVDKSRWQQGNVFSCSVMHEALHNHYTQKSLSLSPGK
Chain of ScFv-Fc fusion protein, chain A with T366W+F405K (chain): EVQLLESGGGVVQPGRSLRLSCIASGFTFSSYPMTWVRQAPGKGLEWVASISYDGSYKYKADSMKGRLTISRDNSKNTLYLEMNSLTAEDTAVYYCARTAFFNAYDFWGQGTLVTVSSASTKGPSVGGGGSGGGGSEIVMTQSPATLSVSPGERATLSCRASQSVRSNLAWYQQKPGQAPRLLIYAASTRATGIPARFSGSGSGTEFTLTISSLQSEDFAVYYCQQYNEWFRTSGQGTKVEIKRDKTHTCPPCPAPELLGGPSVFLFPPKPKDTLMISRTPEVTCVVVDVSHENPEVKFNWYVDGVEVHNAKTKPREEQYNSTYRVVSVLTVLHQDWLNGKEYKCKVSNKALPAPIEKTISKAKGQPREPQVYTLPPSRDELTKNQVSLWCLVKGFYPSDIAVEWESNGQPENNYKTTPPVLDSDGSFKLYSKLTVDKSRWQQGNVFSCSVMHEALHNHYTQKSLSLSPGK

Consider “ScFv-Fc fusion protein, chain A with T366W+K409A+Y349D”, for which the ScFv-Fc homodimer (%) in assay [1] came to 14%.

The substance “ScFv-Fc fusion protein, chain A with Y349C+T366W+K409A+K360E+Q347E” yielded a ScFv-Fc homodimer (%) in assay [2] of 24%.

Consider “VhH-Fc fusion protein (camel single domain antibody variable region-Fc), chain B with D356C+T366S+L368A+Y407V+F405K”, for which the VhH-Fc homodimer (%) in [3] turned out to be 19%.

“ScFv-Fc fusion protein, chain A with T366W+F405K+D399S”: the ScFv-Fc homodimer (%) in assay [4] is 6%.

With “Human IgG1-Fc, chain B with D356C+T366S+L368A+Y407V+F405K+Q347R (from UniProt P0DOX5 223-449)”, the Fc homodimer (%) in [5] worked out at 12%.

Take “VhH-Fc fusion protein, chain B with T366S+L368A+Y407V+K409A+K392D”: in assay [6], the VhH-Fc homodimer (%) was 13%.

The substance “VhH-Fc fusion protein, chain B with T366S+L368A+Y407V+D399S+F405K” came in with a VhH-Fc homodimer (%) in assay [7] of 13%.

In assay [8], “VhH-Fc fusion protein, chain B with T366S+L368A+Y407V+K409A+E357A” registered a VhH-Fc homodimer (%) of 7%.

“ScFv-Fc fusion protein, chain A with Y349C+T366W+K409A+Q347R” displayed a ScFv-Fc homodimer (%) in assay [9] of 21%.

Take “ScFv-Fc fusion protein, chain A with T366W+F405K+Y349D+S354D”: the ScFv-Fc homodimer (%) in assay [10] turned out to be 9%.

As to “Human IgG1-Fc, chain B with D356C+T366S+L368A+Y407V+Q347R (from UniProt P0DOX5 223-449)”, in [11], the Fc homodimer (%) turned out to be 14%.

Consider “ScFv-Fc fusion protein, chain A with Y349C+T366W+K409A”, for which the ScFv-Fc homodimer (%) was found to be 10% in assay [12], 21% in [13] and 13% in assay [14].

In [15], “VhH-Fc fusion protein, chain B with T366S+L368G+Y407A+K409A” showed a VhH-Fc homodimer (%) of 7%.

“ScFv-Fc fusion protein, chain A with Y349C+T366W+K409E” displayed a ScFv-Fc homodimer (%) in assay [16] of 25%.

As for “ScFv-Fc fusion protein, chain A with Y349C+T366W+F405K”, the ScFv-Fc homodimer (%) in assay [17] was 10%; in [18], 17%; in assay [19], 9%.

In the case of “Human IgG1-Fc, chain B with D356C+T366S+L368A+Y407V+K360E+Q347E (from UniProt P0DOX5 223-449)”, in assay [20], the Fc homodimer (%) was found to be 24%.

In turn, “VhH-Fc fusion protein, chain B with D356C+T366S+L368A+Y407V” yielded a VhH-Fc homodimer (%) in assay [21] of 27%.

On to “ScFv-Fc fusion protein, chain A with T366W+K409A+K392D”, for which, in [22], the ScFv-Fc homodimer (%) amounted to 7%.

Consider “Human IgG1-Fc, chain B with D356C+T366S+L368A+Y407V+F405K (from UniProt P0DOX5 223-449)”, for which the Fc homodimer (%) in assay [23] was 18% and 13%; in assay [24], 10%.

For the substance “ScFv-Fc fusion protein, chain A with T366W+K409A+Y349D+S354D”, the ScFv-Fc homodimer (%) in assay [25] came out at 10%.

With “Human IgG1-Fc, chain B with D356C+T366S+L368A+Y407V (from UniProt P0DOX5 223-449)”, the Fc homodimer (%) is 20% in assay [26] and 23% in [27].

As to “ScFv-Fc fusion protein, chain A with T366W+F405K”, in assay [28], the ScFv-Fc homodimer (%) was determined as 5%.

In [29], “ScFv-Fc fusion protein, chain A with Y349C+T366W+F405K+K360E+Q347E” returned a ScFv-Fc homodimer (%) of 14%.

The substance “Human IgG1-Fc, chain B with D356C+T366S+L368A+Y407V+F405K+K360E+Q347E (from UniProt P0DOX5 223-449)” showed a Fc homodimer (%) in assay [30] of 8%.

In assay [31], “ScFv-Fc fusion protein, chain A with Y349C+T366W+F405K+Q347R” returned a ScFv-Fc homodimer (%) of 14%.

The substance “ScFv-Fc fusion protein, chain A with T366W+K409A” had a ScFv-Fc homodimer (%) in assay [32] of 15%.

For “ScFv-Fc fusion protein (anti-Her2 single chain antibody-Fc), chain A with Y349C+T366W”, the ScFv-Fc homodimer (%) in assay [33] was 29% and 24%.
